Values quoted from earlier work, collected in US10500169B2, “Supression of IgE production by compounds derived from traditional chinese medicine” (Sean N. Parker Foundation, priority 2014, dated 2019).

System: peanut allergic patients

B1: TNX-901: anti-IgE antibody (antibody, chains of the INN, looked up, V domains shown)
VH: QVQLVQSGAEVKKPGASVKVSCKASGYTFSMYWLEWVRQAPGHGLEWVGEISPGTFTTNYNEKFKARATFTADTSTNTAYMELSSLRSEDTAVYYCARFSHFSGSNYDYFDYWGQGTLVTVSS
VL: DILLTQSPGTLSLSPGERATLSCRASQSIGTNIHWYQQKPGQAPRLLIKYASESISGIPSRFSGSGSGTDFTLTISRLEPEDFAMYYCQQSDSWPTTFGQGTKVEIK
Increased from 178 mg peanut protein
  median threshold of sensitivity to peanut after treatment: 2.8 grams
Vs placebo group
  symptoms following peanut challenge: significant decrease in symptoms
